The values below come from publication PMC3842668, “Dual-acting stapled peptides target both HIV-1 entry and assembly” (Retrovirology, 2013).

Where no end group is shown, it is not given here.

The target in one assay is NYAD-36. Briefly: ITC. As to conditions: both partners purified.
A further assay addresses NYAD-67. The assay is described as follows: ITC. The settings on record: both partners purified.

Consider CTRPNYNKRKRIHIGPGRAFYTTKNIIGTIRQAHC (also: cyclic (mode not given here)) [full-length cyclic V3 loop peptide], for which the Kd (as a rule, the equilibrium constant for the complex coming apart) with NYAD-36 stood at 350 ± 30 nM; in the assay with NYAD-67, 990 ± 40 nM.
